Assay results from paper PMC4813479 (2015).
Non-standard residues stand in square brackets, D forms with d. No end group written: not given here.

Molecular target: recombinant αIIbβ3 headpiece
Assay: FP

Binder | Kd [µM]
AGDV-OMe [AGDV-OCH3 (O-methylated AGDV)] | 67.6
AGD[dV] [AGD(v) (D-valine in place of L-valine)] | 217
AGDV-NH2 [AGDV-NH2 (amidated AGDV)] | 50.9
